Patent publication US20030044847A1, “Methods for anlyzing interactions between proteins in live and intact cells” (priority 2001, published 2003)

How the values were obtained:
[1] = test system: CHO cells; details: absence of the human receptor chains; cited from earlier work
[2] = test system: Chinese hamster ovary (CHO) q3 cells; assay: MHC class I antigen induction in CHO q3 cells transfected with human receptor chains; format: cell-based; details: CHO q3 cells with human receptor chains with or without GFP and EBFP; FIG. 3
Text: The human receptor chains (IFN-γR1 and FL-IFN-γR2) without fluorescent proteins (left panel) and those with the fluorescent proteins (IFN-γR1/EBFP and FL-IFN-γR2/GFP) (right panel) were transfected into Chinese hamster ovary (CHO) q3 cells and MHC class I antigen induction measured in response to hamster and human IFN-γ. In the absence of the human receptor chains, Hu-IFN-γ has no effect on CHO cells (78, 87, 98). […] The CHO q3 cells were derived as follows. Hamster UCH-12 cells containing a stable translocation of human chromosome 3q were obtained from Carol Jones and David Patterson. UCH-12 cells were transfected with plasmid pJYI50R1.1 that encodes the intact HLAB7 gene (101) and the resulting cells designated q3. […] The stably transfected population of q3 cells was grown in F12 media supplemented with 10% FBS without selecting antibiotics. […] After three rounds of selection, individual clones were isolated by limiting dilution and amplified. […] MHC class I antigen induction in response to IFN-γ was performed as described (93).
Stable transformants were made in the CHO-derived cell line q3 by the Lipofectin method and limiting dilution clonal isolation.
Images, Spectra and Activity of human IFN-γR2/GFP and IFN-γR1/BFP transfected into COS-1 cells. […]

[3] = test system: IFN-γR2/EBFP and IFN-γR2/GFP; assay: FRET between IFN-γR2/EBFP and IFN-γR2/GFP in COS-1 cells without IFN-γR1 chain; format: cell-based, human; details: cells expressing only IFN-γR2 chains, no IFN-γR1 chain; FIG. 9 left panels
Text: (§1) FIG. 9 Fluorescence transfer between the FL-IFN-γR2/GFP and FL-IFN-γR2/EBFP chains. Both FL-IFN-γR2/GFP and FL-IFN-γR2/EBFP were transfected into COS-1 cells in the absence (left panels) or presence (right panels) of the unlabeled IFN-γR1 chain. Spectra were taken in the presence and absence of IFN-γ.
(§2) Construction of Vectors to Measure FRET in Cells and Transfections. As noted above, green and blue fluorescent proteins (GFP and BFP) were discovered and developed by a number of groups that enabled these fluorescent protein to be seen and localized in cells; and several groups have begun to use FRET to study the interactions of proteins in cells. In our studies, the IFN-γ receptor complex (FIG. 1) was used as the model system to evaluate the ability of FRET to provide insight into the structure of the receptor and to determine the molecular dynamics after attachment of the ligand IFN-γ to the receptor. In order to carry out these studies, IFN-γR1 and IFN-γR2 chains with BFP (or EBFP) and GFP fused to the carboxyl termini of their intracellular domains were constructed (FIG. 2, top). By fusing the DNA encoding the blue fluorescent protein (BFP) to the DNA encoding the carboxyl terminus of the IFN-γR1 chain and by fusing the DNA encoding GFP to the DNA encoding the carboxyl terminus of the IFN-γR2 chain, the cells produce IFN-γR11/BFP and IFN-γR2/GFP. […]

[4] = target: T1, IFN-γR2/EBFP, IFN-γR2/GFP and IFN-γR1 chains (Homo sapiens, UniProt P15260); assay: FRET between IFN-γR2/EBFP and IFN-γR2/GFP in COS-1 cells with unlabeled IFN-γR1 chain; format: cell-based; details: cells expressing IFN-γR2/EBFP, FIG. 9 right panel
T1 construct: expressed in transfected cells; host or cells: COS-1
T1 sequence (P15260 18-489): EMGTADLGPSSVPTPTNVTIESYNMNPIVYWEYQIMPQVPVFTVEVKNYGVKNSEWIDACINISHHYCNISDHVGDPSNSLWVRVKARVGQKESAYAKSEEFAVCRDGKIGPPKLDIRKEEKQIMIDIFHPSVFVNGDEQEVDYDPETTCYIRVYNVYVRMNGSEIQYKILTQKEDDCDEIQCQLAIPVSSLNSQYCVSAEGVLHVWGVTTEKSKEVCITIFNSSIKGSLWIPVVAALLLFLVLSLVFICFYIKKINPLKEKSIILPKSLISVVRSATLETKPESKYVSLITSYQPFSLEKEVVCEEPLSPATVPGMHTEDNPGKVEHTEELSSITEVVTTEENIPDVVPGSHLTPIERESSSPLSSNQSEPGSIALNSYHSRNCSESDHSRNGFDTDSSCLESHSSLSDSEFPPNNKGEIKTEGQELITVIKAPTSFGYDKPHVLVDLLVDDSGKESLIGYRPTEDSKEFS
Text: as §1, §2

[5] = target: T2, IFN-γR1/EBFP and IL-10R2/GFP (Homo sapiens, UniProt P15260); assay: FRET between mismatched receptor pair IFN-γR1/EBFP and IL-10R2/GFP in COS-1 cells; format: cell-based; details: two-photon excitation at 760 nm; FIG. 7
T2 construct: expressed in transfected cells; host or cells: COS-1
T2 sequence (P15260 18-489): T1 sequence (P15260 18-489)
Text: as §2, with “IFN-γR2/GFP. In this way, the BFP and GFP were fused to the intracellular domains of IFN-γR1 and IFN-γR2, respectively (FIG. 2), to monitor interactions among these two receptor chains in intact cells-with and-without IFN-γ treatment.” for “IFN-γR2/GFP.”

[6] = target: T3, IFN-γ receptor complex (IFN-γR1/EBFP and IFN-γR2/GFP) (Homo sapiens, UniProt P15260); assay: FRET between IFN-γR1/BFP (EBFP) and IFN-γR2/GFP (matched pair) in single live COS-1 cells; format: cell-based
T3 construct: EBFP (enhanced blue fluorescent protein); expressed in transfected cells; host or cells: COS-1
T3 sequence (P15260 18-489): T1 sequence (P15260 18-489)
Text: A mammalian expression vector was used to express human interferon γ receptor chains one and two (IFN-γR1 and IFN-γR2) with blue- and green-fluorescent proteins (BFP and GFP) fused to the carboxyl terminus of the chains, respectively. A tandem vector was used so that both chains were expressed in COS-1 cells under the control of the EF-1 promoter. A single cell expressing both of these chains was used to carry out the experiment to examine the effect of human IFN-γ on the distance between the chains and to determine if the chains were associated prior to addition of ligand. This is accomplished by using FRET.
Construction of Vectors to Measure FRET in Cells and Transfections. As noted above, green and blue fluorescent proteins (GFP and BFP) were discovered and developed by a number of groups that enabled these fluorescent protein to be seen and localized in cells; and several groups have begun to use FRET to study the interactions of proteins in cells. In our studies, the IFN-γ receptor complex (FIG. 1) was used as the model system to evaluate the ability of FRET to provide insight into the structure of the receptor and to determine the molecular dynamics after attachment of the ligand IFN-γ to the receptor. […]

IFN-γ: protein secreted by lymphocytes, specifically T-cells and NK-cells; ligand of the IFN-γ receptor complex
effect on CHO cells [1]: no effect | MHC class I antigen induction [2]: as effective as that of hamster IFN-γ | change in FRET spectrum in the presence of IFN-γ [3]: no change in the spectrum

B1: IFN-γ: protein secreted by lymphocytes, specifically T-cells and NK-cells; ligand of the IFN-γ receptor complex (protein, UniProt P01579 24-161, looked up)
Interferon gamma: QDPYVKEAENLKKYFNAGHSDVADNGTLFLGILKNWKEESDRKIMQSQIVSFYFKLFKNFKDDQSIQKSVETIKEDMNVKFFNSNKKKRDDFEKLTNYSVTDLNVQRKAIHELIQVMAELSPAAKTGKRKRSQMLFRG
change in FRET spectrum in the presence of IFN-γ [4]: large change in the spectrum | effect on the fluorescence spectrum of the mismatched pair [5]: did not affect the spectrum | effect on the FRET of the matched receptor pair ([6]; IFN-γ 3500 units/ml added to medium, two-photon excitation at 760 nm, FIG. 8): major reduction in the FRET | FRET signal after treatment of cells with IFN-γ ([6]; single COS-1 cell expressing IFN-γR1 and IFN-γR2 fused to BFP and GFP, excited at 760 nm, FIGS. 12 and 13): almost completely abolished
